Assay results from publication PMC7343212, “Lactoferrin-Hexon Interactions Mediate CAR-Independent Adenovirus Infection of Human Respiratory Cells” (Journal of Virology, 2020).
“Also recorded” adds a separate entry of the source.

What was measured:
HAdV-C5 hexon = biological target: T1, HAdV-C5 hexon (Human adenovirus C serotype 5, UniProt P04133); test: Surface plasmon resonance, HAdV-C5 hexon immobilized; format: binding
T1 construct: the top phase containing soluble viral components was recovered, and HAdV hexons were purified using monoclonal hexon antibodies; made in house; host or cells: A549 cells infected with wild-type HAdV-C5 (strain Ad75)
Method: (§1) Ten flasks of 70% confluent A549 cells were infected with HAdV-C5, HAdV-A31, or HAdV-B35. After initial inoculation, unbound virus was washed away, and approximately 30 ml of fresh medium (DMEM plus 20 mM HEPES [N-2-hydroxyethylpiperazine-NN-2-ethanesulfonic acid] plus 5% FBS) was added. At 48 h after infection, the cells were harvested by scraping into a small volume of DMEM, centrifuged, and resuspended in 6 ml of DMEM. The collected cells were lysed and the sample cleared by centrifugation. Virus was separated from soluble viral components by a CsCl gradient, as described previously ([59]). After ultracentrifugation, the top phase containing soluble viral components was recovered, and HAdV hexons were purified using monoclonal hexon antibodies (MAB8052) covalently attached to magnetic protein A/G beads (Pierce) using dimethyl pimelimidate (DMP) according to the manufacturer’s instructions. Bound hexons were washed three times using PBS to remove protein bound unspecifically, followed by elution in 50 μl of 200 mM glycine buffer at pH 2.5.
(§2) CM5 sensor chips, an amine-coupling kit, and HBS-EP+ buffer (10 mM HEPES, 150 mM NaCl, 3 mM EDTA, and 0.005% [vol/vol] surfactant P20 [pH 7.4]) were all purchased from GE Healthcare. All surface plasmon resonance (SPR) experiments were performed at 25°C in HBS-EP+ running buffer with adenovirus hexons immobilized on the sensor surface. In addition, all experiments were performed with the same batch of LF/Lfcin. Data were collected with a Biacore T200 instrument at a rate of 1 Hz. HAdV hexons were coupled to the CM5 sensor chip by amine coupling reactions according to the manufacturer’s instructions, aiming for an immobilization density of 900 to 1,100 resonance units (RU). The surface of the upstream flow cell was used as a reference and was subjected to the same coupling reaction in the absence of protein. The analytes were serially diluted in running buffer to prepare a 2-fold concentration series ranging from 8 nM to 2 μM and then injected in series over reference and experimental biosensor surfaces for 120 sec at a flow rate of 30 μl/min. Blank samples containing only running buffer were also injected under the same conditions to allow for double referencing. After each cycle, the biosensor surface was regenerated with a 60-sec pulse of 10 mM Tris-glycine (pH 1.5) at a flow rate of 30 μl/min.

HAdV-B35 hexon = test: Surface plasmon resonance, HAdV-B35 hexon immobilized; format: binding
Method: as §1, §2

HAdV-A31 hexon = test: Surface plasmon resonance, HAdV-A31 hexon immobilized; format: binding; conditions: analyte hLF, HBS-EP+ pH 7.4, 25°C, average from three independent measurements
Method: as §1
CM5 sensor chips, an amine-coupling kit, and HBS-EP+ buffer (10 mM HEPES, 150 mM NaCl, 3 mM EDTA, and 0.005% [vol/vol] surfactant P20 [pH 7.4]) were all purchased from GE Healthcare. All surface plasmon resonance (SPR) experiments were performed at 25°C in HBS-EP+ running buffer with adenovirus hexons immobilized on the sensor surface. In addition, all experiments were performed with the same batch of LF/Lfcin. Data were collected with a Biacore T200 instrument at a rate of 1 Hz. HAdV hexons were coupled to the CM5 sensor chip by amine coupling reactions according to the manufacturer’s instructions, aiming for an immobilization density of 900 to 1,100 resonance units (RU). The surface of the upstream flow cell was used as a reference and was subjected to the same coupling reaction in the absence of protein. […]

[1] = system: human respiratory epithelial A549 cells (HAdV-C5_GFP); test: HAdV-C5_GFP transduction of A549 cells; format: cell-based; conditions: for effect of LF on HAdV-C5_GFP transduction of A549 cells (in words): GFP imaging after 44 h (Fig. 1A)
Source text: For all transduction experiments, GFP-expressing vectors were used. The HAdV_GFP vector was purchased from Vector Development Laboratory. All mutated HAdV-C5 vectors were generated in the laboratory of A. Plückthun at the University of Zürich using the AdEasy system (Agilent) to contain an internal ribosome entry site (IRES)-luciferase (Luc)-GFP cassette for detection of transduction. To investigate the role of integrins in transduction, HAdV-C5-IRES-GFP with an intact RGD loop in the penton base protein (-DMNDHAIRGDTFATRAE-) and HAdV-C5-ΔRGD-IRES-GFP (-DMNDTSRAEEKRAE-), known not to bind integrins ([40]), were generated. To determine the binding site for hLF/hLfcin on the hexon protein, hexon-mutated vectors were produced with HVR-1 of HAdV-C5 ([43]) replaced with the corresponding sequence of HAdV-A31, as well as a HAdV-C5 vector mutated in HVR-7 ([44]).
For experiments in A549 cells, 15,000 cells were seeded into a black 96-well plate with a transparent bottom. For experiments with CHO-K1 cells, 20,000 cells were seeded. After 24 h, HAdV-C5 vectors was complexed with 2 μM Lfcin or with ∼12 μM (1 mg/ml) of LF and, after 60 min, added to the cells on ice. The blocking of CAR using soluble HAdV-C5 fiber knob was performed using 10 μg/ml of recombinant knob. After another 60 min, unbound complex was washed away using Dulbecco’s modified Eagle’s medium (DMEM), followed by final addition of fresh medium. After 44 h, the cells were fixed using 4% paraformaldehyde (PFA) for 10 min, and GFP expression was imaged using a Trophos system (Luminy Biotech Entreprises). For the hexon chimeric viruses, transduction was instead quantified by measuring the luciferase activity at 44 h postinfection using a Pierce luciferase glow assay kit.

[2] = system: epithelial and T cells (species C HAdVs); conditions: ref [15], cited from earlier work
Source text: This is surprising, as hLF usually exerts antimicrobial functions ([22][–][24]), as well as preventing virus attachment to target cells and/or inhibiting virus replication ([25][–][27]). hLF is produced largely by neutrophils, but also by primary epithelial cells, and it is naturally present in a vast majority of body fluids in concentrations of up to several mg/ml, where it protects epithelia from pathogens ([28][–][31]). […] In this study, we investigated the molecular mechanisms behind hLF-dependent infection. As a first step, we investigated the structural features whereby hLF mediates HAdV-C5 infection of human respiratory A549 cells. In total, we used three different types of lactoferrin, namely, hLF purified from human tear fluid (present in several mg/ml), a recombinant form of hLF produced in Aspergillus with a human amino acid backbone but with a high-mannose glycosylation pattern ... || Utilization of hLF/hLfcin by species C HAdVs could also account for the frequent and persistent infections of species C HAdVs in tonsil T lymphocytes in young children ([56]). […] Taken together, our results highlight the ingenuity of HAdVs and explain how they may ensure efficient infection in a very hos ...

[3] = system: A549 cells (HAdV-C5 virions); test: 35S-labeled HAdV-C5 virion binding to A549 cells; format: cell-based, Human; conditions: at this concentration (2 μM), Fig. 1C
Method: A549 cells were detached using phosphate-buffered saline (PBS) plus 0.05% EDTA with slow rocking at 37°C. Once detached, the cells were centrifuged at 1,500 × g for 5 min, resuspended in growth medium to about 2 × 10^6 cells/ml, and allowed to recover at 37°C, slowly rocking to keep the cells in suspension. While recovering, the HAdV-Lfcin complex was set up. Lfcin (2 μM), or an equivalent volume of PBS, was mixed with ^35S-labeled HAdV (15,000 particles/cell) in medium and left on ice at 4°C for 60 min. After 60 min of recovery, the cells were counted, and 150,000 viable cells were added to each well of a 96-V-shaped-well plate and centrifuged for 5 min at 1,500 × g. Once pelleted, the cells were resuspended in the HAdV-Lfcin solution or in HAdV-PBS solution and incubated on ice for 60 min at 4°C. After 60 min, the cells were pelleted and washed once in medium and once in PBS before the addition of scintillation fluid and quantification using a Wallac 1450 Microbeta counter (Trilux).

[4] = association rate constant, analyte hLF, SPR, HBS-EP+ pH 7.4, 25°C, average from three independent measurements
[5] = dissociation rate constant, analyte hLF, SPR, HBS-EP+ pH 7.4, 25°C, average from three independent measurements
[6] = LF 1 mg/ml preincubated with HAdV-C5_GFP

T1 sequence (P04133 2-952 limits assumed): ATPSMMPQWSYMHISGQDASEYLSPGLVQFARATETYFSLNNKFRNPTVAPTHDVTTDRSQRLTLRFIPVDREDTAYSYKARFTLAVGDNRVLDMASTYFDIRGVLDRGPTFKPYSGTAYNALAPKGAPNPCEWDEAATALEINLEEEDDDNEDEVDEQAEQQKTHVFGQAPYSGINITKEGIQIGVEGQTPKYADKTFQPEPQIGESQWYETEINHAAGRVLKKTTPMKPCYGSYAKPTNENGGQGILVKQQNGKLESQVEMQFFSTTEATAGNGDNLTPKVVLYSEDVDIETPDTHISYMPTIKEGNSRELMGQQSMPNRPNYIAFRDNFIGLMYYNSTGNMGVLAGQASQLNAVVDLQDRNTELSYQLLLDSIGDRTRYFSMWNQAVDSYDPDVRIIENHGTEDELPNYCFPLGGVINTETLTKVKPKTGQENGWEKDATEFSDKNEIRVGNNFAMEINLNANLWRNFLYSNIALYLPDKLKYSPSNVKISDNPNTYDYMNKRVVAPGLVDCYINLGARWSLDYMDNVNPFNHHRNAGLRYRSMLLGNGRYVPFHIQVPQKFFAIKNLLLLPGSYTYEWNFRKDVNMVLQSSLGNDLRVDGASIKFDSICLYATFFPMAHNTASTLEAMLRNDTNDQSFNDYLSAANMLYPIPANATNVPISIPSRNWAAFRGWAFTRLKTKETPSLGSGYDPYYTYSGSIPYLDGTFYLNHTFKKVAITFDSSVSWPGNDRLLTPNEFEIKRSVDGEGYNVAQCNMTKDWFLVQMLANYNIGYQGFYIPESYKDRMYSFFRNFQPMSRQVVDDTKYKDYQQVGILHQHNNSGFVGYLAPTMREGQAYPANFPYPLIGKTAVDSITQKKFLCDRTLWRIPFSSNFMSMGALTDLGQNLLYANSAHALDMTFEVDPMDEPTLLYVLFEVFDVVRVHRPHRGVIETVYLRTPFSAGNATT

B1: human lactoferrin (protein, UniProt P02788 20-710, looked up)
Lactotransferrin: GRRRSVQWCAVSQPEATKCFQWQRNMRKVRGPPVSCIKRDSPIQCIQAIAENRADAVTLDGGFIYEAGLAPYKLRPVAAEVYGTERQPRTHYYAVAVVKKGGSFQLNELQGLKSCHTGLRRTAGWNVPIGTLRPFLNWTGPPEPIEAAVARFFSASCVPGADKGQFPNLCRLCAGTGENKCAFSSQEPYFSYSGAFKCLRDGAGDVAFIRESTVFEDLSDEAERDEYELLCPDNTRKPVDKFKDCHLARVPSHAVVARSVNGKEDAIWNLLRQAQEKFGKDKSPKFQLFGSPSGQKDLLFKDSAIGFSRVPPRIDSGLYLGSGYFTAIQNLRKSEEEVAARRARVVWCAVGEQELRKCNQWSGLSEGSVTCSSASTTEDCIALVLKGEADAMSLDGGYVYTAGKCGLVPVLAENYKSQQSSDPDPNCVDRPVEGYLAVAVVRRSDTSLTWNSVKGKKSCHTAVDRTAGWNIPMGLLFNQTGSCKFDEYFSQSCAPGSDPRSNLCALCIGDEQGENKCVPNSNERYYGYTGAFRCLAENAGDVAFVKDVTVLQNTDGNNNEAWAKDLKLADFALLCLDGKRKPVTEARSCHLAMAPNHAVVSRMDKVERLKQVLLHQQAKFGRNGSDCPDKFCLFQSETKNLLFNDNTECLARLHGKTTYEKYLGPQYVAGITNLKKCSTSPLLEACEFLRK
notes: Human LF purified from human tear fluid by size exclusion chromatography
For B1, the Kd (HAdV-C5 hexon; SPR Biacore T200, HAdV-C5 hexon amine-coupled on CM5 chip (900 to 1,100 RU), analyte hLF, 2-fold series 8 nM to 2 μM, HBS-EP+ pH 7.4, 25°C, average from three independent measurements) was 29 ± 3.6 nM, the “affinity ratio, HAdV-C5 hexon stronger than HAdV-B35 hexon” value (HAdV-C5 hexon; SPR, 25°C, pH 7.4, HAdV-C5 versus HAdV-B35 hexon) was “about 5 fold” and the ka (HAdV-C5 hexon; [4]) was 53000 ± 2600 M⁻¹ s⁻¹. The kd (HAdV-C5 hexon; [5]) was 0.00154 ± 0.00024 s⁻¹, the Kd (HAdV-B35 hexon; SPR Biacore T200, HAdV-B35 hexon on CM5 chip, analyte hLF, 2-fold series 8 nM to 2 μM, HBS-EP+ pH 7.4, 25°C, average from three independent measurements) was 151 ± 14 nM and the “affinity ratio, HAdV-B35 hexon stronger than HAdV-A31 hexon” value (HAdV-B35 hexon; SPR, 25°C, pH 7.4, HAdV-B35 versus HAdV-A31 hexon) was 5 fold. It also gave a ka (HAdV-B35 hexon; [4]) of 25000 ± 2500 M⁻¹ s⁻¹, a kd (HAdV-B35 hexon; [5]) of 0.00354 ± 0.00014 s⁻¹ and a Kd (HAdV-A31 hexon; SPR Biacore T200, HAdV-A31 hexon on CM5 chip, 2-fold series 8 nM to 2 μM) of 827 ± 55 nM. For the same molecule, the ka (HAdV-A31 hexon; association rate constant, SPR) was 12000 ± 1100 M⁻¹ s⁻¹, the kd (HAdV-A31 hexon; dissociation rate constant, SPR) was 0.01011 ± 0.00024 s⁻¹ and the “increase of HAdV-C5_GFP transduction of A549 cells by LF” value ([1]; LF 1 mg/ml preincubated with HAdV-C5_GFP, GFP imaging after 44 h, mean from 3 to 5 independent experiments (Fig. 1A)) was 4 fold. For the same molecule, the “prevention of transduction at high concentration” value ([1]; high, nonphysiological concentrations, data not shown, cell line not stated, also ref [15]) was “able to prevent transduction”, the “effect on HAdV-C5 infection of CAR-negative T cells” value ([2]; CAR-negative T cells) was “facilitates HAdV-C5 infection” and the “effect on species C HAdV infection” value [2] was “efficiently increases species C HAdV infection; also recorded: all species C HAdVs infect epithelial and T cells more efficiently”.

B2: bovine lactoferrin (protein, UniProt P24627 20-708, looked up)
Lactotransferrin: APRKNVRWCTISQPEWFKCRRWQWRMKKLGAPSITCVRRAFALECIRAIAEKKADAVTLDGGMVFEAGRDPYKLRPVAAEIYGTKESPQTHYYAVAVVKKGSNFQLDQLQGRKSCHTGLGRSAGWIIPMGILRPYLSWTESLEPLQGAVAKFFSASCVPCIDRQAYPNLCQLCKGEGENQCACSSREPYFGYSGAFKCLQDGAGDVAFVKETTVFENLPEKADRDQYELLCLNNSRAPVDAFKECHLAQVPSHAVVARSVDGKEDLIWKLLSKAQEKFGKNKSRSFQLFGSPPGQRDLLFKDSALGFLRIPSKVDSALYLGSRYLTTLKNLRETAEEVKARYTRVVWCAVGPEEQKKCQQWSQQSGQNVTCATASTTDDCIVLVLKGEADALNLDGGYIYTAGKCGLVPVLAENRKSSKHSSLDCVLRPTEGYLAVAVVKKANEGLTWNSLKDKKSCHTAVDRTAGWNIPMGLIVNQTGSCAFDEFFSQSCAPGADPKSRLCALCAGDDQGLDKCVPNSKEKYYGYTGAFRCLAEDVGDVAFVKNDTVWENTNGESTADWAKNLNREDFRLLCLDGTRKPVTEAQSCHLAVAPNHAVVSRSDRAAHVKQVLLHQQALFGKNGKNCPDKFCLFKSETKNLLFNDNTECLAKLGGRPTYEEYLGTEYVTAIANLKKCSTSPLLEACAFLTR
notes: bovine lactoferrin from cow milk (Sigma)
For B2, the “effect of LF on HAdV-C5_GFP transduction of A549 cells (in words)” value [1, 6] was “Neither bLF nor rhLF affected HAdV-C5_GFP transduction”, the “effect on HAdV-C5 transduction of A549 cells (in words)” value ([1]; at this concentration (2 μM), Fig. 1D) was “no or little effect” and the “effect on HAdV-C5 binding to A549 cells (in words)” value [3] was “no or little effect”.

B3: rhLF: recombinant hLF produced in Aspergillus awamori, human amino acid backbone, high-mannose glycosylation pattern (protein, UniProt P02788 20-710, looked up)
Lactotransferrin: B1 Lactotransferrin
modifications: recombinant, expressed in Aspergillus awamori
In the case of B3, the “effect of LF on HAdV-C5_GFP transduction of A549 cells (in words)” value [1, 6] is reported as “Neither bLF nor rhLF affected HAdV-C5_GFP transduction”.
